The text below walks through data of patent US20070026510A1, “Process for biochemical production of glyoxylic acid” (Kaneka Corporation, priority 2003, published 2007).

The nature of series [1]: Oxidase activity to glyoxal (H2O2 detection with 4-AA/TOOS/POD, absorbance 555 nm). The class given is biochemical. The note with it: for Activity to glyoxal/activity to glyoxylic acid: 10 mM substrate, 30° C., 100 mM phosphate buffer pH 7; for Relative activity (%): substrate glyoxal (reference = 100), enzymes of the invention. How it is done:
When the reaction is catalyzed by oxidase, not only glyoxylic acid but also hydrogen peroxide is produced. Oxidase activity of interest can easily be detected by detecting such hydrogen peroxide.
Specifically, 0.1 ml of cell suspension or enzyme solution is added to 0.9 ml of a 100 mM phosphate buffer (pH 7) having the composition indicated below, and an increase in the absorbance at a wavelength of 555 nm is measured at 30° C. In the present invention, enzyme activity for generating 1 μmol H2O2 per minute is defined as 1 unit.
(§1) The cell-free extract of each of KNK235 and KNK058 obtained by the method described in Example 1 was charged to a Resource Q column (6 ml) that had previously been equilibrated with a 0.05 M phosphate buffer (pH 7), and the enzyme was eluted with a linear concentration gradient of sodium chloride from 0 to 0.5 M, so as to collect active fractions. Roughly purified enzyme solutions of these KNK235 and KNK058 and purified enzymes obtained from Streptomyces sp. KNK269, Microbacterium sp. KNK011, and Cellulosimicrobium cellulans IFO 15516, obtained in Examples 4, 5, and 7, respectively, were measured in terms of their oxidase activity to glyoxal and to glyoxylic acid. Measurement of the enzyme activity was carried out by the following method. That is, 1.0 ml of a reaction solution comprising 10 mM glyoxal or glyoxylic acid, 0.67 mM 4-AA, 1.09 mM TOOS, 2 U/ml POD, and a roughly purified enzyme from KNK235 or KNK058, or a purified enzyme obtained from NKN269, KNK011, or IFO 15516 in Example 4, 5, or 7, was reacted at 30° C. in a 100 mM phosphate buffer (pH 7). Thereafter, an increase in the absorbance at a wavelength of 555 nm was measured.

The nature of series [2]: Conversion of glyoxal into glyoxylic acid by purified enzymes, HPLC. The format is biochemical. The note with it: 0.2 U/ml enzyme, 50 mM glyoxal, 5,000 U/ml catalase, 100 mM Tris-HCl, 30° C., 3 hours. How it is done: Each of the enzymes derived from Streptomyces sp. KNK269, Microbacterium sp. KNK011, Pseudomonas sp. KNK058, and Cellulosimicrobium cellulans IFO 15516, which were obtained in Examples 4, 5, 6, and 7, respectively, was reacted using glyoxal as a substrate. That is, 1 ml of 100 mM Tris-HCl buffer comprising 0.2 U/ml enzyme derived from each of the above strains, 50 mM glyoxal, and 5,000 U/ml catalase, were placed in a test tube. It was then subjected to a shake reaction at 30° C. for 3 hours. After completion of the reaction, the reaction solution was analyzed by high performance liquid chromatography.

The nature of series [3]: Oxidase activity to glyoxylic acid (H2O2 detection with 4-AA/TOOS/POD, absorbance 555 nm). The format is biochemical. The note with it: substrate glyoxylic acid, relative to glyoxal = 100; enzymes of the invention. How it is done:
as §1

Series [4] is described as follows: Heat stability of purified enzyme (remaining activity). The format is physicochemical. The note with it: 0.05 M phosphate buffer pH 7.2, 20 minutes, treatment at 70° C. (FIG. 3). How it is done: as §1, with “measured. […]” for “measured.”
The present enzyme was treated in a 0.05 M phosphate buffer (pH 7.2) at each temperature from 30° C. to 70° C. for 20 minutes. Thereafter, the remaining activity of the present enzyme was measured using glyoxal as a substrate.

Bounds are passed on as bounds.

Turning to “IFO15516-derived enzyme: aldehyde oxidase purified from culture supernatant of Cellulosimicrobium cellulans IFO 15516; SEQ ID NOS: 11 and 12”, the “Activity to glyoxal/activity to glyoxylic acid” value (“Activity to glyoxal/activity” below) in series [1] came out at 100. The “Relative activity (%)” value is reported as 100% in series [1] and 1% in series [3]. The same molecule returned a glyoxylic acid generated in series [2] of 26 mM.

Turning to “KNK011-derived enzyme: aldehyde oxidase purified from Microbacterium sp. KNK011; SEQ ID NOS: 7 and 8”, in series [1], the “Activity to glyoxal/activity” value was found to be 183 and the “Relative activity (%)” value is given as 100%. Moreover, the glyoxylic acid generated in series [2] was found to be 25 mM. For the same molecule, the “Relative activity (%)” value in series [3] stood at 0.5%.

B1: KNK269-derived enzyme: aldehyde oxidase purified from Streptomyces sp. KNK269; three subunits, SEQ ID NOS: 1 to 3 (protein)
chain 1: GADLEPEPVVDEHSTVTLNVNGDPTTLTVDHRTTVLETLRESFGLTGAKKGCDHGQCGACTVLVDGRRVNSCLLLAVAQDGATITTVEGLADGEDLHPVQRAFVERDALQCGFCTPGQICSAVGMLREAADGHPSHVTGPDTAAGPDAATGPGGPVALDADEIRERMSGNIFRCGAYHRIVEAIEDVIE
chain 2: MKPFGYVRPASPDEAVRLCAEGSGARFLGGGTNLVDLMKLGVEAPRVLIDVAGLPLDRVTRTADGGLAIGATVRNSDLAAHPDVTDRYPVLSQALLAGASGQLRNSATTGGNLLQRTRCRYFQDVSKPCNKRLPGSGCPARDGTHRDLAILGHSPECVATNPSDMAVALAALDATVVLLGPEGERAVPLTEFHRLPGENPDQDTAIRTGELITEVVLPPPAPGAATRYRKARDRASFAFALVSVAATLRVDAGRVEHATLAFGGVAHRPWRARRAEAELRGAPATPAVFQHALIAELAEARPLRDNVFKVDLARRLALDVLGELTERQPTRTG
chain 3: MTTRAPQFPGAPVVRREARDKVTGTARYAADRTPAGCLYAWTVPAAVAAGRVTAVRAVDALAVPGVHTVLTHDNAPELREPDDPILAVLQDDRVPHHGWPIALVIAESPEAARTGAGELHVEYARDEHDVTLTEDHPGLYTPEEANGGEPAVRVRGDVERALAASPVQVDATYRMVALHNHPMEPHAATAVRADGHLTVHDSSQGSTKVRESLAQAFGLAADRITVVSEHVGGGFGSKGTTRPQGVLAAMAAQHTGRPVKLVFPRAQLAEVVGHRAPTIQRVRLGADLDGVLTAVSHEVVTQTSTVKEFVEQAAVPARVMYASPHSRTAHRVTALDVPSPSWMRAPGEASGMYALESAMDVLDSALGLDPVELRLRNEPETEPDSGRPFSSRGLAACLRDGAARFGWQDRDPRPAARQEGRWLIGTGVASATYPVLLSRSTASAHATRDGDLSIAVNATDIGTGARTVLAQIAADVLGVAPEALRVDIGSTDLPAAPLAGGSSGTASWGWSVHKAATALAARLAEHRGPLPADGITTTADTGQETGEESPYARHAFGAHFAETAVDAVTGEVRVRRLLGVYAAGRILNERTARSQFTGGMVMGIGMALTEGCGIDPGFGDFTAKDLASYHVPVCADTADIQAHWIEEDDRHLNPMGSKGIGEIGIVGTAAAIGNAVRHATGARLRELPLTTDT
modifications: Streptomyces sp. KNK269; amino acid sequence of subunit gamma of aldehyde oxidase; amino acid sequence of subunit beta of aldehyde oxidase; amino acid sequence of subunit alpha of aldehyde oxidase
In the case of B1, the “remaining activity after heat treatment” value in series [4] is given as not below 90%. In addition, in series [1], the “Activity to glyoxal/activity” value is 1,710 and the “Relative activity (%)” value is listed as 100%. Besides, the glyoxylic acid generated in series [2] came out at 7.6 mM. For the same molecule, the “Relative activity (%)” value in series [3] is 0.1%.
